What was measured:
[1] = target: T1, full-length OX40 on cells (transfected CHO-S cells, in vitro activated CD4 positive T-cells) (human, UniProt P43489 29-277); test: flow cytometry on transfected and endogenously expressing cells (Fig. 6A)
T1 construct: whole, on cells; also called 0X40; target expressing cells
T1 sequence (looked up): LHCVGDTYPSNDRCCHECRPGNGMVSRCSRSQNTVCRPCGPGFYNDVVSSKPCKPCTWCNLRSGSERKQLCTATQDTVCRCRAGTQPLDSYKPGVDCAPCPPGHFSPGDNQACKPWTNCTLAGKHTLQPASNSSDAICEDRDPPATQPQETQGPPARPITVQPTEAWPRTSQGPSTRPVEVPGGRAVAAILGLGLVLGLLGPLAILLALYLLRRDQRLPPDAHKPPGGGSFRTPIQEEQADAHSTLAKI

[2] = target: T2, full-length CD40 on cells (transfected CHO-S cells, Raji B-cell line, primary B cells) (human, UniProt P25942 21-277); test: as above
T2 construct: whole, on cells; also called target expressing cells

[3] = target: T2, full-length CD40 on cells (transfected …); test: flow cytometry on transfected and endogenously expressing cells (Fig. 6B)
[4] = target: T3, full-length 4-1BB on cells (transfected CHO-S cells, in vitro activated CD4 positive T-cells) (human, UniProt Q07011 24-255); test: as above
T3 construct: whole, on cells; also called target expressing cells

[5] = target: T1, full-length OX40 on cells (transfected …); test: flow cytometry on transfected and endogenously expressing cells (Fig. 6C)
[6] = target: T3, full-length 4-1BB on cells (transfected …); test: as above
[7] = target: T1, full-length OX40 on cells (transfected …); test: flow cytometry on overexpressing or endogenously expressing cells (Fig. 7)
[8] = target: T2, full-length CD40 on cells (transfected …); test: as above

T2 sequence (P25942 21-277): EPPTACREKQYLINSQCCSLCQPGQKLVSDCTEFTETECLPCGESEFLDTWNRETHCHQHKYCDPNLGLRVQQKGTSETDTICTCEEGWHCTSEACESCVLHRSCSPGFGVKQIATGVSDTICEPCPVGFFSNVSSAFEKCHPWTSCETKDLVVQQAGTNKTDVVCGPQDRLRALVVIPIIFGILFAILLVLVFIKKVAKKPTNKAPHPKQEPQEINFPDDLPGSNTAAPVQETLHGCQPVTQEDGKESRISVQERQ
T3 sequence (Q07011 24-255): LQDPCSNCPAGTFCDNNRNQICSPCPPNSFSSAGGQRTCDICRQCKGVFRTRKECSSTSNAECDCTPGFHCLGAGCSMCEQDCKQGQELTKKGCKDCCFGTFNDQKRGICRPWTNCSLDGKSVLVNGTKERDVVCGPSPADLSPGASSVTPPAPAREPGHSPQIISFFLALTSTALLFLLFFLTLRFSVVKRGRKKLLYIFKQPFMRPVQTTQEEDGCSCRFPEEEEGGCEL

B1: tetra VH IgG #2 (VH-CH1=OX40 #2, VH-CL=CD40 #5) (bispecific antibody, V domains shown, not shown: a dimerising Fc or GST)
V domain 1: EVQLLESGGGLVQPGGSLRLSCAASGFTFSSYAMSWVRQAPGKGLEWVSGVSGGGGSTYYADSVRGRFTISRDNSKNTLYLQMNSLRAEDTAVYYCARGWDDINVWGQGTLVTVSS
V domain 2: EVQLLESGGGLVQPGGSLRLSCAASGFTFSSYTMDWVRQAPGKGLEWVSSISESGDTTDYADSVKGRFTISRDNSKNTLYLQMNSLRAEDTAVYYCARCSGGSCYSVNWGQGTLVTVSS
notes: Human IgG1 format with a VH in place of the VL; no VL domain; also called anti-CD40/OX40 tetra-VH IgG; OX40/CD40 bispecific antibody
binding result [1]: binds | binding result [2]: binds

B2: tetra VH IgG #4 (VH-CH1=41BB #4, VH-CL=CD40 #3) (bispecific antibody, V domains shown, not shown: a dimerising Fc or GST)
V domain 1: EVQLLESGGGLVQPGGSLRLSCAASGFTFGDYAMSWFRQAPGKGLEWVAVLSYDGSNTDYADSVKGRFTISRDNSKNTLYLQMNSLRAEDTAVYYCAKGPLILAAGNYWGQGTLVTVSS
V domain 2: EVQLLESGGGLVQPGGSLRLSCAASGFTFSSYAMSWVRQAPGKGLEWVSRLNSDGITATYADSVKGRFTISRDNSKNTLYLQMNSLRAEDTAVYYCARGKIPAIDHWGQGTLVTVSS
notes: Human IgG1 format with a VH in place of the VL; no VL domain; also called tetra VH lgG#4; anti-41 BB/CD40 tetra-VH IgG
binding result [3]: binds | binding result [4]: binds

B3: tetra VH IgG #20 (VH-CH1=41BB #4, VH-CL=OX40 #2) (bispecific antibody, V domains shown, not shown: a dimerising Fc or GST)
V domain 1: B2 V domain 1
V domain 2: B1 V domain 1
notes: Human IgG1 format with a VH in place of the VL; no VL domain; also called anti 0X40/41 BB tetra-VH IgG
binding result [5]: binds | binding result [6]: binds

B4: tetra VH IgG #5 (VH-CH1=CD40 #5, VH-CL=OX40 #2) (bispecific antibody, V domains shown, not shown: a dimerising Fc or GST)
V domain 1: B1 V domain 2
V domain 2: B1 V domain 1
notes: Human IgG1 format with a VH in place of the VL; no VL domain; also called tetra VH lgG#5
binding result [7]: binds | binding result [8]: binds
